This data set can be described thus: yeast display, Sf9 membrane polyspecificity reagent, FACS + sequencing; frameworks hold sequencing errors. Summed up:
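Galactose induction of a Saccharomyces cerevisiae BJ5465 synthetic nanobody display library ran 36–48 hours. The cells were then stained for 1 hour at 4 °C with 10% biotinylated, detergent-solubilized Sf9 membrane reagent, pulled down on streptavidin microbeads and FACS-sorted into low and high (top ~1%) gates on expression and reagent-binding fluorescence. Labels for polyreactivity follow the gate of origin.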
In the case of “QVQHVESRGGLVQAGGSLRLSCAASGRTFVRYAMGWYRQAPGKERELVAAISGDGASTYYADSVKGRFTISRDNAMNTVYLQMNSLKPEDTAVYYCNARSIRRYYYPDYDYWGQGTQVTVSS”, the “polyreactivity (PSR sort gate)” value is recorded as “high polyreactivity”. In the case of “QVQHVESRGGLVQAGGSLRLSCAASGSIFFAYAMGWDRQGPGKEREFVAAISASGGSTSYADSVKGRFTISRDNAKNTVYLQMNSLKPEDTAVYYCATEHSVTTYDYWGQGTQVTVSS”, the “polyreactivity (PSR sort gate)” value was “low polyreactivity”. The result for “QVQHVESVGGLDQAGVSLRLSSSASGITFSYNAMGCSRQAPGKESEFVAAISSNSDSTYYADSVKGRFTISRDNAKNTVYLQMNSLKPEDTAVYYCAAETPDAPDYSGFYYWGQGTQVTVSS” reads “low polyreactivity”. Consider “QVQHVESVGGLVQAGGSLRLSCAASGGIFWVYAMGWYRQAPGKERELVAAISNSDTSTSYADSVKGRFTISRDNAKNTVYLQMNSLKPEDTAVYYCNADSPSLSGDYWGQGTQVTVSS”, for which the “polyreactivity (PSR sort gate)” value was “low polyreactivity”. Consider “QVQHVESVGGLVQAGGSLRLSCAASGRTFGAYDMGWYRQAPGKERELVAAITRSGGSTYYADSVKGRFTISRDNAKNTVYLQMNSLKPEDTAVYYCAARDQVYNYRFGSRGGVYYWGQGTQVTVSS”, for which the “polyreactivity (PSR sort gate)” value is on record as “high polyreactivity”. As for “QVQHVESVGGLVQAGGSLRLSCAASGRTLKKNAMGWYRQAPGKERELVAAISTGGRTYYADSVKGRFTISRDNAKNTVYLQMNSLKPEDTAVYYCNFQFLSWSTIWGNDYWGQGTQVTVSS”, the “polyreactivity (PSR sort gate)” value is “high polyreactivity”. For the sequence “QVQHVESVGGLVQAGGTLRLSCSASGQIFEPYAMGWYRQAPGKERELVAAINSGGSTNYADSVKGRFTISRDNAKNTVYLQMNSLKPEDTAVYYCNKGQNIRQSPGDYWGLGTQVTVSS”, the “polyreactivity (PSR sort gate)” value is recorded as “low polyreactivity”. Consider “QVQHVESVVGLVQAGGSLRLSCAASGSTFGPNAMGWSRQAPGKERELVAAITSGGRTYYADSVKGRFTISRDNAKNTVYLQMNSLKPEDTAVYYCAARVSVGVPRYEYWGQGTQVTVSS”, for which the “polyreactivity (PSR sort gate)” value is recorded as “high polyreactivity”. The result for “QVQHVETGGGLVQAGGSLRLSCAASGFIFSQYAMGWYRQAPGKERELVAAISSGSTYADSVKGRVTISRDNAKNTVYLQMNSLKPEDTAVYYCAVDYHQAWPSADYWFEYVYWGQGTQVTVSS” reads “low polyreactivity”; that for “QVQHVETGGGLVQAGGSLRLSCAASGRIFSYNAMGWYRQPPGKERELVAAISQRGGRTYYADSVKGRFTISRDNAKNTVYLQMNSLKPEDPAVYDCNKDKGQSLSSYGYWGQGTQVTVSS”, “high polyreactivity”.

For the sequence “QVQHVETGGGLVQAGGSLRLSCAATGYTLYRYPMGWYRQAPGKERELVARISYRTGSTYYADSVKGRFTISRDKAKNTVYLQMNSLKPEDTAVYYCAKYPGISGYKYWGQGTQVTVSS”, the “polyreactivity (PSR sort gate)” value was “high polyreactivity”. Consider “QVQHVETGRDLVQAGGSLRLSCAAAGLIFVSYAMGGYRQAPGKERELVASITDSDSSTYYADSVKGRFTISRDNAKNTVYLQMNSLKPEDTAVYYCATGGRTEIWYPTLDYWGQGTQVTVSS”, for which the “polyreactivity (PSR sort gate)” value was “low polyreactivity”. As to “QVQIEDSGGGLVQAGGSLRLICAASGFTFINNDMGWYRQAPGKERELVAAISDSDGTTYYADSVKGRFTISRDNAKNTVYLQMNSLKPEDTEVYYCAADVVPTWEDEYWGQGTQVTVSS”, the “polyreactivity (PSR sort gate)” value is recorded as “low polyreactivity”.

For “QVQIEESGGGLVQAGGSLRLSCAASGFTFRWYAMGWSIQAPGKERELVAAIDWSGGSTNYADSVKGRFTISRDNAKNTVYLQMNSLKPEDTAVYYCAAVWRYWYPGFVPYDYWGQGTQVTVSS”, the “polyreactivity (PSR sort gate)” value was “high polyreactivity”. Take “QVQIEESGGGLVQAGGSLRLSCAASGRIFGSYTMGWSRQAPRKERELVAGISRRGGSTYYADSVKGRFTISRDNAKYTVYLQMNSLTTEDTAVYYCNTLRTNLFFTPLGFDYWGQGTQVTVSS”: the “polyreactivity (PSR sort gate)” value is reported as “high polyreactivity”. “QVQIEESGGGLVQAGGSLRLSCAASGRTFLHKDMGWYRPAPGKERELVAAINVSDGSTYYADSVKGRFTISRDNAKNTVYLQMNSLKPEDTAVYYCAKASYIIFRFEYRSGYDYWGQGTQVTVSS”: the “polyreactivity (PSR sort gate)” value was “low polyreactivity”. As for “QVQIEESGGGLVQAGGSLRLSCAASGSIFPLYTMGWSRQAPGKERELVAAIDFRGGSTYYADSVKGRFTISRDNAKNSVYLQMNSLKPEDTAVYYCAAAYWAYDTGKMGYWGQGTQVTVSS”, the “polyreactivity (PSR sort gate)” value was “low polyreactivity”. The value for “QVQILESGGGLVQAGGSLGLSCAASGSTFPPYAMGWYRQAPGKERELVATITRGGSTYYADSVKGRFTFSRDNAKNTVYVQMNSLKPADTAVYDCNAKVNRSRRSNLYDYWGQGTQVTVSS” was “high polyreactivity”. With “QVQIVASWGGLVQAGGSLRLSCAATGRIFEINAMGWYRQAPGKERELVAAITRSGGSTYYADSVKGRFTISRDYAKNTVYVQMNSLKPEDTAVYYCAARGRYWYSRYYSWGQGTQVTVSA”, the “polyreactivity (PSR sort gate)” value is “high polyreactivity”. Consider “QVQIVDSGVGLVQAGGSLRLSCAASGSIFKYNAKGWYREAPGKVRELVAAIRWSGVGTRYADSVKGRFTISRVNAKNTVYLQMNSLKPEDTAVYSCAARYGRHRVSCYATWRYGYWGQGTQVTVSS”, for which the “polyreactivity (PSR sort gate)” value is “low polyreactivity”. As for “QVQIVESCGGLFQAAGRLRLICADSRSIFSYNAMGWYRQAPGKERELVAAITSGGRTYYADSVKGRFTISRDNAKNTVYLQMNSLKPEDTGVYYCAAYQTGLHGFYSWGQGTQVTVSS”, the “polyreactivity (PSR sort gate)” value was “high polyreactivity”. On to “QVQIVESCGGLVQAGGSLRLSCAASGITFDVNTMGWYRQAPGKEREMVAAITRDVTTNYADSVKGPFTISRDNAKNTVYLQMNSLKPEDTAVYYCAADGYGQYSQVTDHPYKYNYWRQGTQVTVSS”, for which the “polyreactivity (PSR sort gate)” value is recorded as “low polyreactivity”. With “QVQIVESGAGLVQAGGTLRISCAPSGITFTPYAMGWYRQAPGKEWELVATITSDGGSTYYADSVKGRFTISRDNAKNTVYLQKNSLKPEETAVYYCAAADHAWLYGWGYSLDVWYYYWGQGNQVTVSS”, the “polyreactivity (PSR sort gate)” value is “low polyreactivity”. Consider “QVQIVESGAVIVQAGGSLRLSCAASGSTFGSYTMGWYRQAPGKERELVASISRDGRTKYADSVKGRFTISRDNATNTVYLQMKSLKPEDTAVYYCANSKWRGRGGTYDYWGQVTQVTVSS”, for which the “polyreactivity (PSR sort gate)” value is recorded as “high polyreactivity”. On to “QVQIVESGGCLVQAGGSLRLSCAASGGTIGGNAMGWYRQAPGKQREMVAAITDIGGSTYYSDSVKGRFTISRDNAKNTVSLQKNCLKPEDTSVYFCATDEASNQDATYLYYYWGQGTQVTVSS”, for which the “polyreactivity (PSR sort gate)” value is reported as “low polyreactivity”. With “QVQIVESGGGLEQAGGSLRLSCAASGRIFNRYAMGWYRQAPGKDWELVARNSWSGARTYYADSVKGRFTISRDNAKNTVYLQMNRLKPEDTAVSYCAAAVTYPAGGRTSLYEYWGQRTQVTVSS”, the “polyreactivity (PSR sort gate)” value was “high polyreactivity”. As for “QVQIVESGGGLFQAGGSLRISCAASGSTIRANPMGWYRQAPGKERELVAAITKNGGSTYYADSVKGRYTISRDNAKYTVYLPMNTLIPEDNGVYYCAARRSSRRPPYYYWGQGTQVTVSS”, the “polyreactivity (PSR sort gate)” value was “high polyreactivity”. As for “QVQIVESGGGLFQAGGSLRLSCAASGITFVFYAKRRYRQAPGKERELVAAISSSGGSTYYADSVKVRFTISRDYAKNSVYLQMKSLKPDDTAVYYCNAIVFSYQRAVRYDYWGQGTQVTVSS”, the “polyreactivity (PSR sort gate)” value is given as “high polyreactivity”.

As for “QVQIVESGGGLLQAGGSLRLSCAASGGIFGRYAMGWYRQAPGKERELVAAITTRGTSTYYADSVKGRFTISRDNAMNTVYLQMNSLKPEDTAVYYCSAAYGRHPSSGSWGQGTQVTVSS”, the “polyreactivity (PSR sort gate)” value is “high polyreactivity”. The value for “QVQIVESGGGLVKAGGSLRLSCAASGSTFERYAMGWYRQAPGKERELVAAINWSGGGTYYADSVKGRFTISRDNAKNTVYLQMNSLKPEDTAVYYCAADSGTVVFSLWWYEYYYWGQGTQVTVSS” was “low polyreactivity”; that for “QVQIVESGGGLVQAGGILRLSCASSRSIFTVNTMGWYRQEHGKETELVAAINSRGGTTYYADSVKGRFTISRDNAKNTVYLQMISLKPEDTAFYYCAARTRIGLLYDYWGQGTQVTVSS” was “high polyreactivity”.

As for “QVQIVESGGGLVQAGGRLRLSCSASGSIFDWYDMGWYRQAPGKERELVAAITTGGITNYADSVKGRFTLSRDNAKNTVYLQMNSLKPEDTAVYYCAADSLGVYDGDYWGQGTQVTVSS”, the “polyreactivity (PSR sort gate)” value is “low polyreactivity”. The value for “QVQIVESGGGLVQAGGSLRFSCAASGRTFWLNDMGWYRHAPGKERELVARISRRGGSTYYAHSVKGRFTISRDHAKNTVYLQIISLKPEDTAVYYCAAAIVTRSYKYDYWGQGTQVTVSS” was “high polyreactivity”; that for “QVQIVESGGGLVQAGGSLRIICAASGSTFDPNAMGWYRQAPGKERELVAGISTGGTRTYYADSVKGRFTISRDNAKNTVFLQLKSLKPEDTAVYYCAARFTYNVLDTIYRLYYWGQGTQVTVSS” was “high polyreactivity”. Turning to “QVQIVESGGGLVQAGGSLRISCAASGLTFHRYAMGRYRQAPGKERELVAAINYSGGRTYYADSVKGRFTISRDNAKNTVYLQMNSLKPVDTAVYYCAAPRASGYYWGQGTQVTVSS”, the “polyreactivity (PSR sort gate)” value was “high polyreactivity”.

Turning to “QVQIVESGGGLVQAGGSLRISCAPSGLTFGYYAMGWYRQAPGTERELVAAITYRGGSTYYADSVKGRFTISRDNAKNTVYLQMNSLKPEDTAVYYCATDYFYYDYWGQGTQVTVSS”, the “polyreactivity (PSR sort gate)” value is listed as “low polyreactivity”. Turning to “QVQIVESGGGLVQAGGSLRLICAASGRIFYRYAMGWYRQAPGKERELVAAISSGSSTNYADSVKGRFTISRDNAKNTVYLQMNSLKPEDTAVYYCNAERYGKSWRYCYWGQGTQVTVSS”, the “polyreactivity (PSR sort gate)” value is recorded as “high polyreactivity”.

For “QVQIVESGGGLVQAGGSLRLICAASGSTFSEYAMGWYRQAPGKERELVAAIRWSGGSTSYADSVKGRFTISRVNAKNTVYLQMNSLKPEDTAVYYCAAERFWYDGEVKLYVLSYYWGQGTQVTVSS”, the “polyreactivity (PSR sort gate)” value is “low polyreactivity”.

“QVQIVESGGGLVQAGGSLRLRCAASGSISGRNGMGWYRQAPGKERELVAAISTSGASTYYADSVKGRFTISRDNSKNTVYLQMNSLKTEDTAGYYCARLWGRRGYGYWGQGTQVTVSS”: the “polyreactivity (PSR sort gate)” value is “high polyreactivity”. The value for “QVQIVESGGGLVQAGGSLRLSCAASGFIFWDYAMGWYRQAPGKERELVAAISDSGGDTYYADSVKGRFTISRDNAKNTVYLQMNSLKPEDTAVYYCAADVELWVFRGQQYDYWGQGTQVTVSS” was “low polyreactivity”.
